{"source": "FireProtDB (doi:10.1110/ps.0205902)", "proteins": {"B1": {"name": "Guanyl-specific ribonuclease T1 wild type, P00651 (protein)", "chain": "MMYSKLLTLTTLLLPTALALPSLVERACDYTCGSNCYSSSDVSTAQAAGYQLHEDGETVGSNSYPHKYNNYEGFDFSVSSPYYEWPILSSGDVYSGGSPGADRVVFNENNQLAGVITHTGASGNNFVECT"}}, "details": "Aspergillus oryzae (strain ATCC 42149 / RIB 40), pH 3, 25 °C, Urea, CD, Glycine-HCl 3 mM, reversible: yes, whole UniProt chain shown", "data": [{"protein": "B1", "values": [{"measurement": "denaturant m value", "setting": "Na2SO4 0.01 M", "result": 1.67, "unit": "kcal/mol/M"}, {"measurement": "denaturant midpoint (higher = more stable)", "setting": "Na2SO4 0.01 M", "result": 2.55, "unit": "M"}, {"measurement": "unfolding free energy", "setting": "Na2SO4 0.01 M", "result": 4.2, "unit": "kcal/mol"}, {"measurement": "denaturant m value", "setting": "Na2SO4 0.20 M", "result": 1.52, "unit": "kcal/mol/M"}, {"measurement": "denaturant midpoint (higher = more stable)", "setting": "Na2SO4 0.20 M", "result": 4.21, "unit": "M"}, {"measurement": "unfolding free energy", "setting": "Na2SO4 0.20 M", "result": 6.38, "unit": "kcal/mol"}, {"measurement": "denaturant m value", "setting": "Na2SO4 0.50 M", "result": 1.5, "unit": "kcal/mol/M"}, {"measurement": "denaturant midpoint (higher = more stable)", "setting": "Na2SO4 0.50 M", "result": 5.28, "unit": "M"}, {"measurement": "unfolding free energy", "setting": "Na2SO4 0.50 M", "result": 7.91, "unit": "kcal/mol"}, {"measurement": "denaturant m value", "setting": "Na2SO4 0.80 M", "result": 1.47, "unit": "kcal/mol/M"}, {"measurement": "denaturant midpoint (higher = more stable)", "setting": "Na2SO4 0.80 M", "result": 5.81, "unit": "M"}, {"measurement": "unfolding free energy", "setting": "Na2SO4 0.80 M", "result": 8.56, "unit": "kcal/mol"}, {"measurement": "denaturant m value", "setting": "NaCl 0.01 M", "result": 2.29, "unit": "kcal/mol/M"}, {"measurement": "denaturant midpoint (higher = more stable)", "setting": "NaCl 0.01 M", "result": 1.43, "unit": "M"}, {"measurement": "unfolding free energy", "setting": "NaCl 0.01 M", "result": 3.26, "unit": "kcal/mol"}, {"measurement": "denaturant m value", "setting": "NaCl 0.25 M", "result": 1.85, "unit": "kcal/mol/M"}, {"measurement": "denaturant midpoint (higher = more stable)", "setting": "NaCl 0.25 M", "result": 2, "unit": "M"}, {"measurement": "unfolding free energy", "setting": "NaCl 0.25 M", "result": 3.69, "unit": "kcal/mol"}, {"measurement": "denaturant m value", "setting": "NaCl 0.50 M", "result": 1.8, "unit": "kcal/mol/M"}, {"measurement": "denaturant midpoint (higher = more stable)", "setting": "NaCl 0.50 M", "result": 2.49, "unit": "M"}, {"measurement": "unfolding free energy", "setting": "NaCl 0.50 M", "result": 4.48, "unit": "kcal/mol"}, {"measurement": "denaturant m value", "setting": "NaCl 0.75 M", "result": 1.75, "unit": "kcal/mol/M"}, {"measurement": "denaturant midpoint (higher = more stable)", "setting": "NaCl 0.75 M", "result": 2.91, "unit": "M"}, {"measurement": "unfolding free energy", "setting": "NaCl 0.75 M", "result": 5.07, "unit": "kcal/mol"}, {"measurement": "denaturant m value", "setting": "NaCl 1.00 M", "result": 1.64, "unit": "kcal/mol/M"}, {"measurement": "denaturant midpoint (higher = more stable)", "setting": "NaCl 1.00 M", "result": 3.21, "unit": "M"}, {"measurement": "unfolding free energy", "setting": "NaCl 1.00 M", "result": 5.28, "unit": "kcal/mol"}, {"measurement": "denaturant m value", "setting": "NaSCN 0.01 M", "result": 2.21, "unit": "kcal/mol/M"}, {"measurement": "denaturant midpoint (higher = more stable)", "setting": "NaSCN 0.01 M", "result": 1.44, "unit": "M"}, {"measurement": "unfolding free energy", "setting": "NaSCN 0.01 M", "result": 3.05, "unit": "kcal/mol"}, {"measurement": "denaturant m value", "setting": "NaSCN 0.05 M", "result": 1.87, "unit": "kcal/mol/M"}, {"measurement": "denaturant midpoint (higher = more stable)", "setting": "NaSCN 0.05 M", "result": 1.55, "unit": "M"}, {"measurement": "unfolding free energy", "setting": "NaSCN 0.05 M", "result": 2.91, "unit": "kcal/mol"}, {"measurement": "denaturant m value", "setting": "NaSCN 0.25 M", "result": 1.23, "unit": "kcal/mol/M"}, {"measurement": "denaturant midpoint (higher = more stable)", "setting": "NaSCN 0.25 M", "result": 1.5, "unit": "M"}, {"measurement": "unfolding free energy", "setting": "NaSCN 0.25 M", "result": 1.85, "unit": "kcal/mol"}, {"measurement": "denaturant m value", "setting": "NaSCN 0.50 M", "result": 1.03, "unit": "kcal/mol/M"}, {"measurement": "denaturant midpoint (higher = more stable)", "setting": "NaSCN 0.50 M", "result": 1.38, "unit": "M"}, {"measurement": "unfolding free energy", "setting": "NaSCN 0.50 M", "result": 1.43, "unit": "kcal/mol"}, {"measurement": "denaturant m value", "setting": "NaSCN 0.75 M", "result": 1.1, "unit": "kcal/mol/M"}, {"measurement": "denaturant midpoint (higher = more stable)", "setting": "NaSCN 0.75 M", "result": 1.04, "unit": "M"}, {"measurement": "unfolding free energy", "setting": "NaSCN 0.75 M", "result": 1.14, "unit": "kcal/mol"}, {"measurement": "denaturant m value", "result": 2.24, "unit": "kcal/mol/M"}, {"measurement": "denaturant midpoint (higher = more stable)", "result": 1.48, "unit": "M"}, {"measurement": "unfolding free energy", "result": 3.28, "unit": "kcal/mol"}]}]}
